According to the DeepSol protein solubility set:

experiment: soluble on expression in E. coli; label from the status in PepcDB or PDB records

| Sequence | soluble on expression in E. coli |
| --- | --- |
| MGSDKIHHHHHHMNEILKNSPISRAKLSEITGLNKSTISSQVNTLLENKFIFEIGEGQSRGGRRPVMLVFNKNAGYSIGIDVGVDYINGILTDLEGNIVLEKSYNLPIPSSDEVKEILFTIIKYFVSHMPESPYGLIGIGICVPGLVDKQQKIIFMPNSKWEIKDLKAVIETEFNVPVFIENEANAGAYGEKVFGNTKNFSNIIYVSINVGIGIGIIINNELYKGINGFSGEMGHMAIDFNGPKCSCGNRGCWELYASEKALLNSFFKDGKAISCHEIIELAHKNDVEVLNALQNFGFYIGIGLTNILNTFDAEAVILRNHIIESNPIVLNAIKNAVSSRVYSQIEGTYELLPSSLGKNAPALGTTSIVIEHFLNK | not soluble |
| MGSDKIHHHHHHMRAIAIVLARSSSKRIKNKNIIDFFNKPMLAYPIEVALNSKLFEKVFISSDSMEYVNLAKNYGASFLNLRPKILADDRATTLEVMAYHMEELELKDEDIACCLYGASALLQEKHLKNAFETLNKNQNTDYVFTCSPFSASPYRSFSLENGVQMAFKEHSNTRTQDLKTLYHDAGLLYMGKAQAFKEMRPIFSQNSIALELSPLEVQDIAHFRRFRISQAQIQPFEKRMPVKILCDCFLTSGLGHVRRCEKILSFIEKLGVEASLYLHKQNNISAFLEGVGGNDFLITDSYCLNSKDFYLLKEKAKSLMVIEDTEHAKGFYPKNTKILNFTLNALKHYHHLSKDYQYYLGVGFYPVDARFIYDRPINTENKEVLITLGGSEQKTLKEIVKILENKNVNLHIISPYTPKNPPKNTHYYSPLNPLEFSSLMKSCACAISAAGQTLYELALSQTPSLILPIASNQIIQSKEFESLGIFKQTSLKTLAKDFENLQIQKNQAWAKNLVFGDKLEGALREFLEI | not soluble |
| MSLSRAAIVDQLKEIVGADRVITDETVLKKNSIDRFRKFPDIHGIYTLPIPAAVVKLGSTEQVSRVLNFMNAHKINGVPRTGASATEGGLETVVENSVVLDGSAMNQIINIDIENMQATAQCGVPLEVLENALREKGYTTGHSPQSKPLAQMGGLVATRSIGQFSTLYGAIEDMVVGLEAVLADGTVTRIKNVPRRAAGPDIRHIIIATKVHCAISLK | soluble |
| MSNQYGDKNLKIFSLNSNPELAKEIADIVGVQLGKCSVTRFSDGEVQINIEESIRGCDCYIIQSTSDPVNEHIMELLIMVDALKRASAKTINIVIPYYGYARQDRKARSREPITAKLFANLLETAGATRVIALDLHAPQIQGFFDIPIDHLMGVPILGEYFEGKNLEDIVIVSPDHGGVTRARKLADRLKAPIAIIDKRRPRPNVAEVMNIVGNIEGKTAILIDDIIDTAGTITLAANALVENGAKEVYACCTHPVLSGPAVERINNSTIKELVVTNSIKLPEEKKIERFKQLSVGPLLAEAIIRVHEQQSVSYLFS | soluble |
| MSLIYPEITGKSGEHLRLKTLESVWIQGKLRMWGRWSYIGDGKTGNMFNQLLTSKKLTKTAINEALRRMKKAGLDKPELEAFLRDMINGNQKSWLAHCTDSEALIIDRVIGEVLAGYPGLLNVLSQRYVGRGMTKRKMAELLNDAHPEWSLRTCERRIEHWLKVAEFILYKPMVMAFGIEKKVIAFEGHHHHHH | soluble |
| SLEQPGFKLRAVTIHFEASADVDSIEDAVFKAKEAIDRLTAEKGVEVWSLRAVLTPGESVADSLGRVAELEPLVEEEGVFINLGLHNASADDWEAVSGIVESGFFLSFALENGTWEEARSYSKLLHRLADKSPDLAVHIGFNPLGTHILTPYFPLATSPGEQRTVTVALLYPRYLLESFRKGGLQAVIDSMVDAAQLSGEYGKAVAKDVEGSFAGVDLSISPWMEESSLALVEEVGGVRLPEPGFAYGLRLVNEAIAAAASKTGYAVGFNEVQLPVAEDSKLKVRVAELETSARDLLRLSGVCLAGLDMAVIPASLDGVAGLLLEARAYSRAKGSIVGVRLIPLDGVEPGDEVFLKRFGEVPVIPI | soluble |
| MAHHHHHHMLIPVRCYSCGKVVGHLYELYQELLNQDHTEAEALNALRLSRMCCRRMILSHIDLADDLLPYSVPVVGSMPLINPVQGPVPRRQ | not soluble |
| MSLPVFSFEEPTGPHRVGTKLYHWVDHQRNEPYSKNPNDRRELMVQIWYPAAEKSKGDPEPYIRNINELSKGLEKTLSIPAFAFSHMELVKSHSFMDLQLSDSENHYPILLFSHGFNGFRNQNTFQVEELASQGYIVLSIDHTFDAAATVFPGGRTAYVQPINLTDEGDSHIKLWEEDVSFVLNQIEKLNENDETGFFTGRLDTSRIGMFGHSYGGATAAQILAKDSRVKAAINMDGTLYGEILPESGIGKPFLLMNAEEPDEADPFEVRERYGRGLAGGGMSMVIPHTDHTSFTDLHLFSPLLQSPGENPKEVHRIINEFSLAFFDQYVKQKDDGSTLKRLITQYPEVNFKINREGHHHHHH | soluble |
| MVESGKAQMESFRIDNNGIQKKSRTKFIAGVGKSLRSAKNLTSKTVQTQFVAYPELAQLLPIFPAERLKKLILNGLDGQEYKQLIDLDQWKQARIFHGYAENLIIPIEKFFHFERFDVHLARFTEADALRLRAMIDRSAHFGFAGICCNYMNNSALKRIFNVEHENFYQTPDERSFDVQCRPGEISITKFGYTVE | not soluble |
| MVQVGAAAINRVDVAVIGGGIAGVAIAEYVARHTNLSVQLLEQNSHLGGDSSGKLEGWFHTGALYSGQDDGQTFFNCVNGVEDLLNHYSHYFAGRCNLTLEQFDHGYRPTVTGAGWFDPNPVYLIHPQRHSPEMLQSGLKGDRVQLEMQLKRVLGRLEMAYGQQFNWRSPTGNGAVAPDYDHLESYEQRSCSLLGQSEKISHYCQQFDLSHGVKPSDYALLKSLDCAMDTQGILQDLTASALAHGTAIATGINLEQINVDRYGPVRVQSIFYRDCQGQQHYLKAKAFIFAVGAGFERILPTLQVRAKLKQSRSTMVVAYPAISSHNFVRMSTKNSYHFNHFFQRANIPDSSEFLNYSMLANSGYVSNENDYLASGEIELLLDTAARYFSEENLYQRQLWSYDCVKTEFISDDAQKRRYSYWIEVNPQSNYLCVLPGKFSFFPTVAVQTLKQLKTILPTEEVDRSHRDYSAHYHQAQALVASPYPHQLLASYWKNNANSLEHHHHHH | soluble |
| MTVPLYKQIASLIEDSIVDGTLSIDQRVPSTNELAAFHRINPATARNGLTLLVEAGILYKKRGIGMFVSAQAPALIRERRDAAFAATYVAPLIDESIHLGFTRARIHALLDQVAESRGLYK | not soluble |
| CFSCLNQKSNLYCLKPTICSDQDNYCVTVSASAGIGNLVTFGHSLSKTCSPACPIPEGVNVGVASMGISCCQSFLCNFS | soluble |
| MEGWQRAFVLHSRPWSETSLMLDVFTEESGRVRLVAKGARSKRSTLKGALQPFTPLLLRFGGRGEVKTLRSAEAVSLALPLSGITLYSGLYINELLSRVLEYETRFSELFFDYLHCIQSLAGVTGTPEPALRRFELALLGHLGYGVNFTHCAGSGEPVDDTMTYRYREEKGFIASVVIDNKTFTGRQLKALNAREFPDADTLRAAKRFTRMALKPYLGGKPLKSRELFRQFMPKRTVKTHYE | soluble |
| MALQGISVMELSGLAPGPFCAMVLADFGARVVRVDRPGSRYDVSRLGRGKRSLVLDLKQPRGAAVLRRLCKRSDVLLEPFRRGVMEKLQLGPEILQRENPRLIYARLSGFGQSGSFCRLAGHDINYLALSGGRNSIFKFFSVENSEIESVGSTSRTEHVGWWSTFLYDLQDSRWGIHGCWSNRTPVLRAADQRTWTKV | not soluble |
| MSLATNKKEIIRLLEEIATYMELKGENSFKISAFRKAAQAIELDSRSLSEIDDFTKISGIGKTTGEIIQRYLDSGECPELEELKKEVPAGLVPLLDVPGLGGKKLSRLYHELGVVDKDTLLQEAENGHIEALKGFGKKSAEKMAEAVREMGERPDRYPLNDVLPIIQKVEAYLAEIAPIETFAQAGSLRRLRETVKDLDYVIATEKPEDVQKALLAFPLITDVIGAGETKVSAVLEDNITISVDFRLVEKKAFATTLHHFTGSKDHNIKMRQLAKQSNEKISEYGVEQEDGTVRHFESEKTFFEHFKIPFLPPEVRRDGTEIERVTKDTKFLELSDIRGDLHMHTTWSDGAYAIPEMIEACIAKGYEYMVITDHGKFLRVANGLDEKRLLEQQAEIKKIAAKYPEIDVYSGVEMDILADGSLDFDDETLKQLDFVIASIHSSFQQSEEEIMKRLKTACENPYVRLIAHPTGRIVVKRKPYHVNMKELIQLAKSTGTALELNANPQRLDLNREHLEMAHAAGVPIAINTDAHDTKHLDFMSIGVRAATKAWLGKSAILNTKTAAEFKQFLQNKEGHHHHHH | soluble |
